Measured values as given in the Human Domainome abundance scans (Beltran et al. 2025).
± gives the uncertainty stated by the source.

B1: Proto-oncogene vav, residues 782 to 842; numbered along this chain, P15498 (parent)
chain: KYFGTAKARYDFCARDRSELSLKEGDIIKILNKKGQQGWWRGEIYGRVGWFPANYVEEDYS

Variants of: B1
Assay: abundance fitness (aPCA) (normalised: wild type 0, dead -1); higher = more abundant; growth selection in yeast, the domain comes from the species named
Conditions: Homo sapiens

Abundance fitness of substitutions, site by site:
F51: N -0.489 ± 0.33, L -0.813 ± 0.088, I -0.691 ± 0.25, S -0.857 ± 0.15, Q -0.759 ± 0.19, M -0.905 ± 0.15, T -0.799 ± 0.15
W50: N -0.329 ± 0.14, T -0.645 ± 0.17, Y -0.17 ± 0.11, A -0.649 ± 0.17, F -0.678 ± 0.24, E -0.603 ± 0.17, G -0.699 ± 0.11, L -0.341 ± 0.069, Q -0.516 ± 0.15, D -0.493 ± 0.15, R -0.596 ± 0.092, V -0.452 ± 0.098, M -0.387 ± 0.12, K -0.559 ± 0.15, S -0.584 ± 0.11, I -0.739 ± 0.23
W40: I -0.385 ± 0.24, K -0.362 ± 0.35, V -0.648 ± 0.083, R -0.948 ± 0.19, G -0.707 ± 0.084, M -0.428 ± 0.14, Y -0.182 ± 0.14, Q -0.876 ± 0.46, L -0.306 ± 0.077, C -0.833 ± 0.23, E -0.924 ± 0.28, F -0.303 ± 0.21, D -0.747 ± 0.23, P -0.876 ± 0.46, A -1.13 ± 0.26, S -0.785 ± 0.14
R41: T -0.633 ± 0.13, A -0.364 ± 0.07, S -0.359 ± 0.084, N -0.375 ± 0.15, E 0.018 ± 0.085, M 0.024 ± 0.078, P -0.588 ± 0.14, Q 0.129 ± 0.073, G -0.691 ± 0.11, I -0.463 ± 0.12, L 0.031 ± 0.049, K 0.008 ± 0.08, W -0.123 ± 0.12, F 0.081 ± 0.091, H -0.113 ± 0.12, C -0.002 ± 0.098
G46: K -0.516 ± 0.12, P -0.387 ± 0.061, F -0.942 ± 0.14, W -0.853 ± 0.1, Q -0.291 ± 0.082, I -0.766 ± 0.16, S -0.343 ± 0.067, V -0.748 ± 0.073, N -0.15 ± 0.098, D -0.19 ± 0.098, H -0.672 ± 0.16, L -0.67 ± 0.07, T -0.542 ± 0.069, M -0.896 ± 0.12, C -0.784 ± 0.17, E -0.311 ± 0.063, A -0.731 ± 0.09, Y -1.01 ± 0.29, R -0.671 ± 0.061
G49: L -1.01 ± 0.29, K -0.92 ± 0.36, Q -0.838 ± 0.29, N -0.956 ± 0.41, S -0.618 ± 0.14, V -0.902 ± 0.32, R -0.998 ± 0.27, P -0.776 ± 0.2, F -0.87 ± 0.26, A -0.433 ± 0.2, D -0.956 ± 0.33, T -0.506 ± 0.19, M -0.907 ± 0.45, C -0.83 ± 0.49
Y45: L 0.036 ± 0.043, V -0.074 ± 0.052, H 0.135 ± 0.15, P -0.211 ± 0.072, A 0.106 ± 0.056, N 0.081 ± 0.074, K 0.115 ± 0.065, W -0.101 ± 0.068, M 0.1 ± 0.06, S 0.164 ± 0.047, Q 0.169 ± 0.066, E 0.103 ± 0.065, T -0.021 ± 0.053, D 0.147 ± 0.079, F 0.085 ± 0.17, G 0.125 ± 0.044
W39: I -0.408 ± 0.098, E -0.795 ± 0.27, A -0.614 ± 0.15, M -0.028 ± 0.07, F -0.354 ± 0.097, Q -0.317 ± 0.079, L -0.268 ± 0.055, T -0.385 ± 0.078, S -0.599 ± 0.08, R -0.241 ± 0.049, H -0.513 ± 0.2, G -0.978 ± 0.17, N -0.674 ± 0.15, P -0.807 ± 0.12
G42: M -0.748 ± 0.15, D -0.385 ± 0.21, E -0.809 ± 0.26, P -0.916 ± 0.26, T -0.825 ± 0.16, F -1.02 ± 0.4, L -0.788 ± 0.11, R -0.398 ± 0.081, S -0.787 ± 0.12, Y -0.618 ± 0.26, I -0.832 ± 0.33, A -0.523 ± 0.11, V -0.837 ± 0.14, Q -0.963 ± 0.35
Q37: K -0.022 ± 0.22, R -0.048 ± 0.063, D -0.008 ± 0.12, W -0.189 ± 0.12, H 0.037 ± 0.11, T -0.135 ± 0.11, I -0.292 ± 0.14, L -0.106 ± 0.056, P 0.039 ± 0.088, E 0.033 ± 0.12, S 0.02 ± 0.071, C -0.02 ± 0.097, A -0.044 ± 0.075, G 0.029 ± 0.11, F -0.186 ± 0.094, Y 0.048 ± 0.11, V -0.024 ± 0.069, M -0.105 ± 0.12, N -0.086 ± 0.22
R47: G -0.628 ± 0.081, S -0.297 ± 0.053, A -0.268 ± 0.051, M -0.393 ± 0.16, D -0.3 ± 0.09, P -0.86 ± 0.12, Y -0.503 ± 0.089, Q -0.065 ± 0.069, K -0.051 ± 0.16, N -0.276 ± 0.14, F -0.788 ± 0.16, H -0.226 ± 0.087, T -0.313 ± 0.12, L -0.493 ± 0.043, W -0.841 ± 0.11, V -0.367 ± 0.049
